The results in this text go back to US20140273151.

In this data set the target is T1, Substrate No. 19.
T1 chain: DEVD

B1: caspase-3 enzyme (Biovision Inc., Mountain View, Calif.) (protein)
chain: SGISLDNSYKMDYPEMGLCIIINNKNFHKSTGMTSRSGTDVDAANLRETFRNLKYEVRNKNDLTREEIVELMRDVSKEDHSKRSSFVCVLLSHGEEGIIFGTNGPVDLKKITNFFRGDRCRSLTGKPKLFIIQACRGTELDCGIETDSGVDDDMACHKIPVEADFLYAYSTAPGYYSWRNSKDGSWFIQSLCAMLKQYADKLEFMHILTRVNRKVATEFESFSFDATFHAKKQIPCIVSMLTKELYFYH
Regarding B1, the “fluorescence signal over time (excitation 485 nm, emission 530 nm) in the presence of dsDNA; enzymatic cleavage assay” value is reported as “The data demonstrates that Substrate No. 19 is a substrate for caspase-3 enzyme”.
